{
  "source": "patent US20220242935A1",
  "experiment_in_all_cases": "crystal structure of the Fab-NA complex",
  "key": {"[1]": {"biological_target": "N1 NA ectodomain of A/California/04/2009 (H1N1) (influenza A virus A/California/04/2009 (H1N1)) (UniProt Q6DPI6)"}, "[2]": {"biological_target": "N2 NA ectodomain of A/Japan/305/1957 (H2N2) (influenza A virus A/Japan/305/1957 (H2N2))"}, "[3]": {"biological_target": "N9 NA ectodomain of A/Hunan/02650/2016 (H7N9) (influenza A virus A/Hunan/02650/2016 (H7N9))"}},
  "data": [
    {"substance": "1G01 Fab", "values": [
      {"measurement": "total buried surface area on the NA", "setting": "[1]", "value": 800, "unit": "Å2"}
    ]},
    {"substance": "1E01 Fab", "values": [
      {"measurement": "total buried surface area on the NA", "setting": "[2]", "value": 900, "unit": "Å2"}
    ]},
    {"substance": "1G04 Fab", "values": [
      {"measurement": "total buried surface area on the NA", "setting": "[3]", "value": 1030, "unit": "Å2"}
    ]}
  ]
}
